Molecular target: T1, hIL-17A (human, UniProt Q16552 24-155)
T1 construct: Bought protein
Assay: ELISA on captured hIL-17A, cleared E. coli lysates

T1 sequence (Q16552 24-155 limits assumed): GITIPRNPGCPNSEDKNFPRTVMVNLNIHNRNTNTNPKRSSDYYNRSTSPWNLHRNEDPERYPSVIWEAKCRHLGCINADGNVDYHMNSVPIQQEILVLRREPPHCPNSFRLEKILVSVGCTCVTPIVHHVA

Row | Binder | binding result
1 | V1 expressed in E. coli (Trx-6xHis-tagged) (receptor, Tested as cleared E. coli lysate; not shown: N-terminal thioredoxin (Trx)-6xHistidine tag of pET32) LRLLDHRALVCSQEGLNCTVKNSTCLDDSWIHPRNLTPSSPKNLQIQLHFAHTQQGDLLPVAHIEWTLQTDASILYLEGAELSVLQLNTNERLCVRFEFLSKLRHHHKRWRFTFSHFVVDPDQEYEVTVHHLPKPIPDGDPNHQSKNFLVPDCEDARMKVTTPCMSSGSLWDPNITVETLEAHQLRVSFTLWNESTHYQILLTSFPHMENHSCFEHMHHIPAPRPEEFHQRSNVTLTLSNLKGCCRHQVQIQPFFSSCLNDCLRHSATVSCPEMPDTPEPIPDYMPLW | binds
2 | V19 expressed in E. coli (Trx-6xHis-tagged) (receptor, Tested as cleared E. coli lysate; not shown: N-terminal thioredoxin (Trx)-6xHistidine tag of pET32) LRLLDHQALVCSQEGLNCTVKNSTCLDDSWIHPRNLTPSSPKDIQIQLHFAHTQQGDLLPVAHIEWTLQTDASILYLEGAELSVLQLNTNERLCVRFEFLSKLRHHHRRWRFTFSHFVVDPDQEYEVTVHHLPKPIPDGDPNHQSKNFLVPDCEHARMKVTTPCMSSGSLWDPNITVETLEAHQLRVSFTLWNESTHYQILLTSFPHMENHSCFEHMHHIPAPRPEEFHQRSNVTLTLRNLKGCCRHQVQIQPFFSSCLNDCLRHSATVSCPEMPDTPEPIPDYMPLW | binds
3 | V20 expressed in E. coli (Trx-6xHis-tagged) (receptor, Tested as cleared E. coli lysate; not shown: N-terminal thioredoxin (Trx)-6xHistidine tag of pET32) LRLLDHRAPVCSQEGLNCTVKNSTCLDDSWIHPRNLTPSSPKDVQIQLHFAHTQQGDLVPVAHIEWTLQTDASILYLEGAELSVLQLNTNERLCVRFEFLSKLRHHHRRWRFTFSHFVVDPDREYEVTVHHLPKPIPDGDPNHQSKNFLVPDCEHPRMKVTTPCMSSGSLWDPNITVETLEAHQLRVSFTLWNESTHYQILLTSFPHMENHSCFEHMHHIPAPRPEEFHQRSNVTLTLRNLKGCCRHQVQIQPFFSSCLNDCLRHSATVSCPEMPDTPEPIPDYMPLW | binds
4 | V21 expressed in E. coli (Trx-6xHis-tagged) (receptor, Tested as cleared E. coli lysate; not shown: N-terminal thioredoxin (Trx)-6xHistidine tag of pET32) LRLLDHRALVCSQPGLNCTVKNSTCLDDSWIHPRNLTPSSPKDLQIQLHFAHTQQGDLLPVAHIEWTLQTDASILYLEGAELSVLQLNTNERLCVRFEFLSKLRHHHKRWRFTFSHFVVDPGQEYEVTVHHLPKPIPDGDPNHQSKNFLVPDCEHPRMKVTTPCMSSGSLWDPNITVETLKAHQLRVSFTLWNESTHYQILLISFPHMENHSCFEHMHHIPAPRPEEFHQRSNVTLTLRNLKGCCRHQVQIQPFFSSCLNDCLRHSATVSCPEMPDTPEPIPDYMPLW | binds
5 | V5 expressed in E. coli (Trx-6xHis-tagged) (receptor, Tested as cleared E. coli lysate; not shown: N-terminal thioredoxin (Trx)-6xHistidine tag of pET32) LRLLDHRALVCSQPGLNCTVKNSTCLDDSWIHPRNLTPSSPKNLQIQLHFAHTQQGDLLPVAHIEWTLQTDASILYLEGAELSVLQLNTNERLCVKFEFLSKLRHHHKRWRFTFSHFVVDPDQEYEVTVHHLPKPIPDGDPNHQSKNFLVPDCEHARMKVTTPCMSSGSLWDPNITVETLEAHQLRVSFTLWNESTHYQILLTSFPHMENHSCFEHMHHIPAPRPEEFHQRSNVTLTLRNLKGCCRHQVQIQPFFSSCLNDCLRHSATVSCPEMPDTPEPIPDYMPLW | binds
6 | V4 expressed in E. coli (Trx-6xHis-tagged) (receptor, Tested as cleared E. coli lysate; not shown: N-terminal thioredoxin (Trx)-6xHistidine tag of pET32) LRLLDHRALVCSQPGLNCTVKNSTCLDDSWIHPRNLTPSSPKDIQIQLHFAHTQQGDLLPVAHIEWTPQTDASILYLEGAELSVLQLNTNERLCVRFEFLSKLRHHHRRWRFTFSHFVVDPDQEYEVTVHHLPKPIPDGDPNHQSKNFLVPDCEDARMKVTTPCMSSGSLWDPNITVETLEAHQLRVSFTLWNESTHYQILLTSFPHMENHSCFEHMHHIPAPRPEEFHQRSNVTLTLRNLKGCCRHQVQIQPFFSSCLNDCLRHSATVSCPEMPDTPEPIPDYMPLW | binds
7 | V12 expressed in E. coli (Trx-6xHis-tagged) (receptor, Tested as cleared E. coli lysate; not shown: N-terminal thioredoxin (Trx)-6xHistidine tag of pET32) LRLLDHRAPVCSQPGLNCTVKNSTCLDDSWIHPRNLTPSSPKDLQIQLHFAHTQQGDLFPVAHIEWTLQTDASILYLEGAELSVLQLNTNERLCVRFEFLSKLRHHHRRWRFTFSRFVVDPDQEYEVTVHHLPKPIPDGDPNHQSKNFLVPDCEHPRMKVTTPCMSSGSLWDPNITVETLEAHQLRVSFTLWNESTHYQILLTSFPHMENHSCFEHMHHIPAPRPEEFHQRSNVTLTLRNLKGCCRHQVQIQPFFSSCLNDCLRHSATVSCPEMPDTPEPIPDYMPLW | binds
8 | V14 expressed in E. coli (Trx-6xHis-tagged) (receptor, Tested as cleared E. coli lysate; not shown: N-terminal thioredoxin (Trx)-6xHistidine tag of pET32) LRLLDHRALVCSQPGLNCTVKNSTCLDDSWIHPRNLTPSSPKDVQIQLHFAHTQHGDLFPVAHIEWTLQTDASILYLEGAELSVLQLNTNERLCVRFEFLSKLRHHHKRWRFTFSHFVVDPDQEYEVTVHHLPKPIPDRDPNHQSKNFLVPDCEDARMKVTTPCMSSGSLWDPNITVETLEAHQLRVSFTLWNESTHYQILLTSFPHMENHSCFEHMHHIPAPRPEEFHQRSNVTLTLRNLKGCCRHHVQIQPFFSSCLNDCLRHSVTVSCPEMPDTPEPIPDYMPLW | binds
9 | V7 expressed in E. coli (Trx-6xHis-tagged) (receptor, Tested as cleared E. coli lysate; not shown: N-terminal thioredoxin (Trx)-6xHistidine tag of pET32) LRLLDHRALVCSQPGLNCTVKNSTCLDDSWIHPRNLTPSSPKDLQIQLHFAHTQQGDLVPVAHIEWTLQTDASILYLEGAELSVLQLNTNERLCVRFEFLSKLRHHHKRWRFTFSHFVVDPDQEYEVTVHHLPKPIPDGDPNHQSKNFLVPDCEDARMKVTTPCMSSGSLWDPNITVETLEAHQLRVSFTLWNESTHYQILLTSFPHMENHSCFEHMHHIPAPRPEEFHQRSNVTLTLRNLKGCCRHQVQIQPFFSSCLNDCLRHSATVSCPEMPDTPEPIPDYMPLW | binds

Continued, values first:

Row | binding result | Binder
10 | binds | V18 expressed in E. coli (Trx-6xHis-tagged) (receptor, Tested as cleared E. coli lysate; not shown: N-terminal thioredoxin (Trx)-6xHistidine tag of pET32) LRLLDHRALVCSQPGLNCTVKNSTCLDDSWIHPRNLTPSSPKDLQIQLHFAHTQQGDLFPVAHIEWTLQTDASILYLEGAELSVLQLDTNERLCVRFEFLSKLRHHHRRWRFTFSHFVVDPGQEYEVTVHHLPKPIPDGDPNHQSKNFLVPDCEDARMKVTTPCMSSGSLWDPNITVETLEAHQLRVSFTLWNESTHYQILLTSFPHMENHSCFEHMHHIPAPRPEEFHQRSNVTLTLRNLKGCCRHQVQIQPFFSSCLNDCLRHSATVSCPEMPDTPEPIPDYMPLW
11 | binds | V8 expressed in E. coli (Trx-6xHis-tagged) (receptor, Tested as cleared E. coli lysate; not shown: N-terminal thioredoxin (Trx)-6xHistidine tag of pET32) LRLLDHRALVCSQEGLNCTVKNSTCLDDSWIHPRNLTPSSPKDLQIQLHFAHTQQGDLFPVAHIEWTLQTDASILYLEGAELSVLQLNTNERLCVRFEFLSKLRHHHKRWRFTFSHFVVDPDQEYEVTVHHLPKPIPDGDPNHQSKNFLVPDCEDARMKVTTPCMSSGSLWDPNITVETLEAHQLRVSFTLWNESTHYQILLTSFPHMENHSCFEHMHHIPAPRPEEFHQRSNVTLTLRNLKGCCRHQVQIQPFFSSCLNDCLRHSATVSCPEMPDTPEPIPDYMPLW
12 | binds | V11 expressed in E. coli (Trx-6xHis-tagged) (receptor, Tested as cleared E. coli lysate; not shown: N-terminal thioredoxin (Trx)-6xHistidine tag of pET32) LRLLDHRALVCSQEGLNCTVKNSTCLDDSWIHPRNLTPSSPKDLQIQLHFAHTQQGDLFPVAHIEWTLQTDASILYLEGAELSVLQLNTNERLCVRFEFLSKLRHHHKRWRFTFSHFVVDPDREYEVTVHHLPKPIPDGDPNHQSKNFLVPDCEHPRMKVTTPCMSSGSLWDPNITVETLEAHQLRVSFTLWNESTHYQILLTSFPHMENHSCFEHMHHIPAPRPEEFHQRSNVTLTLRNLKGCCRHQVQIQPFFSSCLNDCLRHSATVSCPEMPDTPEPIPDYMPLW
13 | binds | V16 expressed in E. coli (Trx-6xHis-tagged) (receptor, Tested as cleared E. coli lysate; not shown: N-terminal thioredoxin (Trx)-6xHistidine tag of pET32) LRLLDHRAPVCSQEGLNCTVKNSTCLDDSWIHPRNLTPSSPKDLQIQLHFAHTQQGDLFPVAHIEWTLQTDASILYLEGAELSVLQLNTNERLCVRFEFLSKLRHHHKRWRFTFSHFVVDPDQEYEVTVHHLPKPIPDGDPNHQSKNFLVPDCEDARMKVTTPCMSSGSLWDPNITVETLEAHQLRVSFTLWNESTHYQILLTSFPHMENHSCFEHMHHIPAPRPEEFHQRSNVTLTLRNLKGCCRHQVQIQPFFSSCLNDCLRHSATVSCPEMPDTPEPIPDYMPLW
14 | binds | V17 expressed in E. coli (Trx-6xHis-tagged) (receptor, Tested as cleared E. coli lysate; not shown: N-terminal thioredoxin (Trx)-6xHistidine tag of pET32) LRLLDHRALVCSQPGLNCTVKNSTCLDDSWIHPRNLTPSSPKDLQIQLHFAHTQQGDLLPVAHIEWTLQTDASILYLEGAELSVLQLNTNERLCVRFEFLSELRHHHRRWRFTFSHFVVDPGQEYEVTVHHLPKPIPDGDPNHQSKNFLVPDCEDARMKVTTPCMSSGSLWDPNITVETLEAHQLRVSFTLWNESTHYQILLTSFPHMENHSCFEHMHHIPAPRPEEFHQRSNVTLTLRNLKGCCRHQVQIQPFFSSCLNDCLRHSATVSCPEMPDTPEPIPDYMPLW
15 | binds | V15 expressed in E. coli (Trx-6xHis-tagged) (receptor, Tested as cleared E. coli lysate; not shown: N-terminal thioredoxin (Trx)-6xHistidine tag of pET32) LRLLDHRALVCSQPGLNCTVKNSTCLDDSWIHPRNLTPSSPKDVQIQLHFAHTQQGDLFPVAHIEWTLQTDASILYLEGAELSVLQLNTNERLCVRFEILSKLRHHHRRWRFTFSHFVVDPGQEYEVTVHHLPKPIPDGDPNHQSKNFLVPDCEHARMKVTTPCMSSGSLWDPNITVETLEAHQLRVSFTLWNESTHYQILLTSFPHMENHSCFEHMHHIPAPRPEEFHQRSNVTLTLRNLKGCCRHQVQIQPFFSSCLNDCLRHSVTVSCPEMPDTPEPIPDYMPLW
16 | binds | V13 expressed in E. coli (Trx-6xHis-tagged) (receptor, Tested as cleared E. coli lysate; not shown: N-terminal thioredoxin (Trx)-6xHistidine tag of pET32) LRLLDHRALVCSQPGLNCTVKNSTCLDDSWIHPRNLTPSSPKDLQIQLHFAHTQQGDLFPVAHIEWTLQTDASILYLEGAELSVLQLNTNERLCVKFEFLSKLRHHHRRWRFTFSHFVVDPDQEYEVTVHHLPKPIPDGDPNHQSKNFLVPDCEDARMKVTTPCMSSGSLWDPNITVETLEAHQLRVSFTLWDESTHYQILLTSFPHMENHSCFEHMHHIPAPRPEEFHQRSNVTLTLRNLKWCCRHQVQIQPFFSSCLNDCLRHSATVSCPEMPDTPEPIPDYMPLW
